Measured values from article PMC11727178, “Computer-Aided Design to Improve the Thermal Stability of Rhizomucor miehei Lipase” (Foods, 2024).

B1: Rhizomucor miehei lipase (RML) (Rhizomucor miehei) (protein)
chain: VPIKRQSNSTVDSLPPLIPSRTSAPSSSPSTTDPEAPAMSRNGPLPSDVETKYGMALNATSYPDSVVQAMSIDGGIRAATSQEINELTYYTTLSANSYCRTVIPGATWDCIHCDATEDLKIIKTWSTLIYDTNAMVARGDSEKTIYIVFRGSSSIRNWIADLTFVPVSYPPVSGTKVHKGFLDSYGEVQNELVATVLDQFKQYPSYKVAVTGHSLGGATALLCALDLYQREEGLSSSNLFLYTQGQPRVGDPAFANYVVSTGIPYRRTVNERDIVPHLPPAAFGFLHAGEEYWITDNSPETVQVCTSDLETSDCSNSIVPFTSVLDHLSYFGINTGLCT
B2: Rhizomucor miehei lipase (RML) (Rhizomucor miehei; E324I/N214M/N358M) (protein)
chain: VPIKRQSNSTVDSLPPLIPSRTSAPSSSPSTTDPEAPAMSRNGPLPSDVETKYGMALNATSYPDSVVQAMSIDGGIRAATSQEINELTYYTTLSANSYCRTVIPGATWDCIHCDATEDLKIIKTWSTLIYDTNAMVARGDSEKTIYIVFRGSSSIRNWIADLTFVPVSYPPVSGTKVHKGFLDSYGEVQMELVATVLDQFKQYPSYKVAVTGHSLGGATALLCALDLYQREEGLSSSNLFLYTQGQPRVGDPAFANYVVSTGIPYRRTVNERDIVPHLPPAAFGFLHAGEEYWITDNSPITVQVCTSDLETSDCSNSIVPFTSVLDHLSYFGIMTGLCT

Substrate: CCCCCCCCCCCC(=O)Oc1ccc([N+](=O)[O-])cc1
Test: p-nitrophenol release, Michaelis-Menten
Format: biochemical, Rhizomucor miehei

Protein	Km (at the enzyme's optimal conditions (optimum 45 °C))	Km (at the enzyme's optimal conditions (optimum 55 °C))
B1	92 µM	–
B2	–	31.75 µM
